According to the Immune Epitope Database (IEDB):
Blank lines part the entries; values can stand above or below the sequence they belong to.

Tests used:
HLA-B*15:09 [1] = experiment: IEDB peptide-MHC binding, purified MHC/competitive/fluorescence; filed as Kd, often an IC50 or EC50 that approximates it; ≥ and ≤ were set here for values at or beyond the usual limits of such assays; conditions: source organism: Pleistophora sp. LS
HLA-B*48:01 [2] = experiment: as above; conditions: source organism: Pleistophora sp. LS
HLA-A*11:01 [3] = experiment: as above; conditions: source organism: Pleistophora sp. LS
HLA-B*27:05 [4] = experiment: as above; conditions: source organism: Pleistophora sp. LS
HLA-A*30:01 = experiment: as above; conditions: source organism: Pleistophora sp. LS
HLA-B*57:01 [5] = experiment: as above; conditions: source organism: Pleistophora sp. LS
HLA-A*26:01 = experiment: as above; conditions: source organism: Pleistophora sp. LS
HLA-B*07:02 [6] = experiment: as above; conditions: source organism: Pleistophora sp. LS
HLA-A*68:02 = experiment: as above
HLA-B*08:02 [7] = experiment: as above; conditions: source organism: Pleistophora sp. LS
HLA-B*39:01 [8] = experiment: as above; conditions: source organism: Pleistophora sp. LS
HLA-A*02:03 = experiment: as above; conditions: source organism: Pleistophora sp. LS
HLA-A*02:01 [9] = experiment: as above; conditions: source organism: Pleistophora sp. LS
HLA-B*58:01 [10] = experiment: as above; conditions: source organism: Pleistophora sp. LS
HLA-A*01:01 [11] = experiment: as above; conditions: source organism: Pleistophora sp. LS
HLA-B*08:03 [12] = experiment: as above; conditions: source organism: Pleistophora sp. LS
HLA-B*35:01 = experiment: as above; conditions: source organism: Pleistophora sp. LS
HLA-A*31:01 [13] = experiment: as above; conditions: source organism: Pleistophora sp. LS
HLA-B*15:17 [14] = experiment: as above; conditions: source organism: Pleistophora sp. LS
HLA-B*18:01 [15] = experiment: as above; conditions: source organism: Pleistophora sp. LS
HLA-B*40:01 [16] = experiment: as above; conditions: source organism: Pleistophora sp. LS
HLA-B*38:01 = experiment: IEDB peptide-MHC binding, purified MHC/competitive/radioactivity; filed as Kd, often an IC50 or EC50 that approximates it; ≥ and ≤ were set here for values at or beyond the usual limits of such assays; conditions: source organism: Homo sapiens
HLA-B*15:02 = experiment: IEDB peptide-MHC binding, purified MHC/competitive/fluorescence; filed as Kd, often an IC50 or EC50 that approximates it; ≥ and ≤ were set here for values at or beyond the usual limits of such assays; conditions: source organism: Giardia lamblia ATCC 50803
HLA-B*15:09 [17] = experiment: IEDB peptide-MHC binding, purified MHC/direct/fluorescence; filed as Kd, often an IC50 or EC50 that approximates it; ≥ and ≤ were set here for values at or beyond the usual limits of such assays; conditions: source organism: Orthomarburgvirus marburgense
HLA-B*48:01 [18] = experiment: as above; conditions: source organism: Marburg virus - Musoke, Kenya, 1980
HLA-A*11:01 [19] = experiment: as above; conditions: source organism: Marburg virus - Musoke, Kenya, 1980
HLA-B*27:05 [20] = experiment: as above; conditions: source organism: Marburg virus - Musoke, Kenya, 1980
HLA-A*26:03 = experiment: as above; conditions: source organism: Orthomarburgvirus marburgense
HLA-B*44:02 = experiment: as above; conditions: source organism: Marburg virus - Musoke, Kenya, 1980
HLA-B*57:01 [21] = experiment: as above; conditions: source organism: Marburg virus - Musoke, Kenya, 1980
HLA-B*07:02 [22] = experiment: as above; conditions: source organism: Marburg virus - Musoke, Kenya, 1980
HLA-B*08:02 [23] = experiment: as above; conditions: source organism: Orthomarburgvirus marburgense
HLA-A*26:02 = experiment: as above; conditions: source organism: Orthomarburgvirus marburgense
HLA-A*69:01 = experiment: as above; conditions: source organism: Marburg virus - Musoke, Kenya, 1980
HLA-B*39:01 [24] = experiment: as above; conditions: source organism: Orthomarburgvirus marburgense
HLA-A*02:01 [25] = experiment: as above; conditions: source organism: Marburg virus - Musoke, Kenya, 1980
HLA-B*58:01 [26] = experiment: as above; conditions: source organism: Marburg virus - Musoke, Kenya, 1980
HLA-A*01:01 [27] = experiment: as above; conditions: source organism: Marburg virus - Musoke, Kenya, 1980
HLA-B*08:03 [28] = experiment: as above; conditions: source organism: Orthomarburgvirus marburgense
HLA-A*31:01 [29] = experiment: as above; conditions: source organism: Marburg virus - Musoke, Kenya, 1980
HLA-B*15:17 [30] = experiment: as above; conditions: source organism: Marburg virus - Musoke, Kenya, 1980
HLA-B*18:01 [31] = experiment: as above; conditions: source organism: Marburg virus - Musoke, Kenya, 1980
HLA-B*40:01 [32] = experiment: as above; conditions: source organism: Marburg virus - Musoke, Kenya, 1980

Kd (HLA-B*15:09 [1]): ≥ 20 µM
Kd (HLA-B*48:01 [2]): ≥ 20 µM
Kd (HLA-A*11:01 [3]): ≥ 20 µM
Kd (HLA-B*27:05 [4]): ≥ 20 µM
Kd (HLA-A*30:01): ≥ 20 µM
Kd (HLA-B*57:01 [5]): ≥ 20 µM
Kd (HLA-A*26:01): ≥ 20 µM
Kd (HLA-B*07:02 [6]): ≥ 20 µM
Kd (HLA-A*68:02; source organism: Pleistophora sp. LS): ≥ 20 µM
Kd (HLA-B*08:02 [7]): ≥ 20 µM
Kd (HLA-B*39:01 [8]): 0.949 µM
Kd (HLA-A*02:03): ≥ 20 µM
Kd (HLA-A*02:01 [9]): 0.239 µM
Kd (HLA-B*58:01 [10]): ≥ 20 µM
Kd (HLA-A*01:01 [11]): ≥ 20 µM
Kd (HLA-B*08:03 [12]): ≥ 20 µM
Kd (HLA-B*35:01): ≥ 20 µM
Kd (HLA-A*31:01 [13]): ≥ 20 µM
Kd (HLA-B*15:17 [14]): ≥ 20 µM
Kd (HLA-B*18:01 [15]): ≤ 0.001 µM
Kd (HLA-B*40:01 [16]): 0.04 µM
Sequence: VELQIGWTV

Kd (HLA-B*38:01): 2.48 µM
Sequence: SHETVTIEL

Sequence: TLAHTHAAY
Kd (HLA-B*15:02): 0.0671 µM

Sequence: SEINNLNLT
Kd (HLA-A*68:02; source organism: Orthomarburgvirus marburgense): ≥ 20 µM
Kd (HLA-B*15:09 [17]): ≥ 20 µM
Kd (HLA-B*48:01 [18]): ≥ 20 µM
Kd (HLA-A*11:01 [19]): ≥ 20 µM
Kd (HLA-B*27:05 [20]): ≥ 20 µM
Kd (HLA-A*26:03): ≥ 20 µM
Kd (HLA-B*44:02): ≥ 20 µM
Kd (HLA-B*57:01 [21]): ≥ 20 µM
Kd (HLA-B*07:02 [22]): ≥ 20 µM
Kd (HLA-B*08:02 [23]): ≥ 20 µM
Kd (HLA-A*26:02): ≥ 20 µM
Kd (HLA-A*69:01): ≥ 20 µM
Kd (HLA-B*39:01 [24]): ≥ 20 µM
Kd (HLA-A*02:01 [25]): ≥ 20 µM
Kd (HLA-B*58:01 [26]): ≥ 20 µM
Kd (HLA-A*01:01 [27]): ≥ 20 µM
Kd (HLA-B*08:03 [28]): ≥ 20 µM
Kd (HLA-A*31:01 [29]): ≥ 20 µM
Kd (HLA-B*15:17 [30]): ≥ 20 µM
Kd (HLA-B*18:01 [31]): 8.07 µM
Kd (HLA-B*40:01 [32]): 7 µM
